Data taken from PMC11804706 (Proceedings of the National Academy of Sciences of the …, 2025).

B1: DnaJ, wild type (natural protein)
chain: MAKQDYYEILGVSKTAEEREIRKAYKRLAMKYHPDRNQGDKEAEAKFKEIKEAYEVLTDSQKRAAYDQYGHAAFEQGGMGGGGFGGGADFSDIFGDVFGDIFGGGRGRQRAARGADLRYNMELTLEEAVRGVTKEIRIPTLEECDVCHGSGAKPGTQPQTCPTCHGSGQVQMRQGFFAVQQTCPHCQGRGTLIKDPCNKCHGHGRVERSKTLSVKIPAGVDTGDRIRLAGEGEAGEHGAPAGDLYVQVQVKQHPIFEREGNNLYCEVPINFAMAALGGEIEVPTLDGRVKLKVPGETQTGKLFRMRGKGVKSVRGGAQGDLLCRVVVETPVGLNERQKQLLQELQESFGGPTGEHNSPRSKSFFDGVKKFFDDLTR
modifications: biotin (DnaJ-biotin in the pull-down assays with ClpB; sites not stated)

Assays:
[1] = target: DnaJ, wild type (E. coli) (UniProt P08622); experiment: pull-down
[2] = target: ClpB, wild type (E. coli, UniProt P63284 1-857); experiment: BLI
ClpB, wild type, sequence (P63284 whole entry): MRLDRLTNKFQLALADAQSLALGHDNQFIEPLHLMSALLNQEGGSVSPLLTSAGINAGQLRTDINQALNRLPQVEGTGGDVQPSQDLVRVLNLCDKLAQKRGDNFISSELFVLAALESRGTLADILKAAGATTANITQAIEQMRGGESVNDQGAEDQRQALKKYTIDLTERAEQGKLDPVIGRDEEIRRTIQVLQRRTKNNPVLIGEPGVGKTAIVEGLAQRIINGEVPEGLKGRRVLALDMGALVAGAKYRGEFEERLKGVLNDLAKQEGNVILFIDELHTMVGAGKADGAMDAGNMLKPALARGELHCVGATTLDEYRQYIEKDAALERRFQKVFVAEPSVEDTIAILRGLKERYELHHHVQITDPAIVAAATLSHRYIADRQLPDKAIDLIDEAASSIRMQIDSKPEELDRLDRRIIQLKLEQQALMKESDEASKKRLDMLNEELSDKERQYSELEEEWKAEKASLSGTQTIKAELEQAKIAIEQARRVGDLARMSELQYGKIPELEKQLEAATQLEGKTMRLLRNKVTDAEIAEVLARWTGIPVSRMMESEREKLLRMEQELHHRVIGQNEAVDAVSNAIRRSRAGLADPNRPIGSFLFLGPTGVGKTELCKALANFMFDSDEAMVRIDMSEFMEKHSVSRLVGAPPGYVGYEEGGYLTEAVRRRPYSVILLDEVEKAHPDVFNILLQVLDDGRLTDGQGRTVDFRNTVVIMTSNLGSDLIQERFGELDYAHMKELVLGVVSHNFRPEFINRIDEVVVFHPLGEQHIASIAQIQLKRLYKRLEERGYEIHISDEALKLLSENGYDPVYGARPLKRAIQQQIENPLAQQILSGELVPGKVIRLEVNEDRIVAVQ

Molecule | binding as percent of wild-type ClpB [1] [%] | Kd [2] [nM]
ΔN ClpB (ClpB mutant lacking the NTD) (domain or fragment) | 40 | –
B1 | – | 55.2 ± 9.9
